Holding throughout (experiment): smFRET
Data set [1] addresses T1, Zur(Zn) Cy5-C113 (Escherichia coli, UniProt P0AC51 1-171, C17S;C152S;C158S).
T1 sequence: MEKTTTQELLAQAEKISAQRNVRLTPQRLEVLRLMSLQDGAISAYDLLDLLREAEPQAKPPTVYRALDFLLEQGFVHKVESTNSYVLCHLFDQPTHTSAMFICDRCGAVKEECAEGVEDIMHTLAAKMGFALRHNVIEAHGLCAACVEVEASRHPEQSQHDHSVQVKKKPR

Another data set has as its target T2, Zur(Zn) Cy5-C158 (Escherichia coli, UniProt P0AC51 1-171, C17S;C113S;C152S).
T2 sequence: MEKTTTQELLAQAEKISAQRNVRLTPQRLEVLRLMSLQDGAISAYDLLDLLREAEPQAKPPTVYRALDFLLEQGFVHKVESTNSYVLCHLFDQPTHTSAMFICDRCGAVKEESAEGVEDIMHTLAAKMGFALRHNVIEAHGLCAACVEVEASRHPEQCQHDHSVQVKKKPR

Data set [2] has as its target T3, Zur(Zn) D49A Cy5-C113 (Escherichia coli, UniProt P0AC51 1-171, C17S;D49A;C152S;C158S).
T3 sequence: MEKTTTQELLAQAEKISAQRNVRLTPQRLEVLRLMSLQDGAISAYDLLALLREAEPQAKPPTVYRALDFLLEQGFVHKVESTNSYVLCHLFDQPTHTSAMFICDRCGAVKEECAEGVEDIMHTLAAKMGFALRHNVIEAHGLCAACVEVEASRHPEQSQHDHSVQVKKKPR

For data set [3], the target named is T3, Zur(Zn) D49A Cy5-C113. The source holds these as a separate data set.
The target of data set [4] is T1, Zur(Zn) Cy5-C113. This is another data set of the same source.

Where two headings read alike, the source gives them in different places.

The source of these data is article PMC11618457.

B1: 22-bp truncated znuCB DNA (one dyad) (dsDNA)
DNA 1: AGAAGTGTGATATTATAACATT
DNA 2: AATGTTATAATATCACACTTCT
With B1, the binding result with Zur(Zn) Cy5-C113 [1], with Zur(Zn) Cy5-C158 and with Zur(Zn) D49A Cy5-C113 [2] was “binds” each time.

B2: 31-bp znuCB promoter DNA (dsDNA)
DNA 1: AGAAGTGTGATATTATAACATTTCATGACTA
DNA 2: TAGTCATGAAATGTTATAATATCACACTTCT
For B2, the binding result in the data set with Zur(Zn) D49A Cy5-C113 [3] and with Zur(Zn) Cy5-C113 [4] was “binds” in each case.
